According to IntAct's records for PubMed 21320496:

B1: Abl interactor 1 (Homo sapiens), Q8IZP0-4 (parent)
chain: MAELQMLLEEEIPSGKRALIESYQNLTRVADYCENNYIQATDKRKALEETKAYTTQSLASVAYQINALANNVLQLLDIQASQLRRMESSINHISQTVDIHKEKVARREIGILTTNKNTSRTHKIIAPANMERPVRYIRKPIDYTVLDDVGHGVKWLKAKHGNNQPARTGTLSRTNPPTQKPPSPPMSGRGTLGRNTPYKTLEPVKPPTVPNDYMTSPARLGSQHSPGRTASLNQRPRTHSGSSGGSGSRENSGSSSIGIPIAVPTPSPPTIGPAPGSAPGSQYGTMTRQISRHNSTTSSTSSGGYRRTPSVTAQFSAQPHVNGGPLYSQNSIADSPTPPPPPPPDDIPMFDDSPPPPPPPPVDYEDEEAAVVQYNDPYADGDPAWAPKNYIEKVVAIYDYTKDKDDELSFMEGAIIYVIKKNDDGWYEGVCNRVTGLFPGNYVESIMHYTD

Variants of: B1
Conditions: with Abl1, P00520-4
Abl1, P00520-4, sequence (P00520 other isoform, or with tags, fused parts or gaps): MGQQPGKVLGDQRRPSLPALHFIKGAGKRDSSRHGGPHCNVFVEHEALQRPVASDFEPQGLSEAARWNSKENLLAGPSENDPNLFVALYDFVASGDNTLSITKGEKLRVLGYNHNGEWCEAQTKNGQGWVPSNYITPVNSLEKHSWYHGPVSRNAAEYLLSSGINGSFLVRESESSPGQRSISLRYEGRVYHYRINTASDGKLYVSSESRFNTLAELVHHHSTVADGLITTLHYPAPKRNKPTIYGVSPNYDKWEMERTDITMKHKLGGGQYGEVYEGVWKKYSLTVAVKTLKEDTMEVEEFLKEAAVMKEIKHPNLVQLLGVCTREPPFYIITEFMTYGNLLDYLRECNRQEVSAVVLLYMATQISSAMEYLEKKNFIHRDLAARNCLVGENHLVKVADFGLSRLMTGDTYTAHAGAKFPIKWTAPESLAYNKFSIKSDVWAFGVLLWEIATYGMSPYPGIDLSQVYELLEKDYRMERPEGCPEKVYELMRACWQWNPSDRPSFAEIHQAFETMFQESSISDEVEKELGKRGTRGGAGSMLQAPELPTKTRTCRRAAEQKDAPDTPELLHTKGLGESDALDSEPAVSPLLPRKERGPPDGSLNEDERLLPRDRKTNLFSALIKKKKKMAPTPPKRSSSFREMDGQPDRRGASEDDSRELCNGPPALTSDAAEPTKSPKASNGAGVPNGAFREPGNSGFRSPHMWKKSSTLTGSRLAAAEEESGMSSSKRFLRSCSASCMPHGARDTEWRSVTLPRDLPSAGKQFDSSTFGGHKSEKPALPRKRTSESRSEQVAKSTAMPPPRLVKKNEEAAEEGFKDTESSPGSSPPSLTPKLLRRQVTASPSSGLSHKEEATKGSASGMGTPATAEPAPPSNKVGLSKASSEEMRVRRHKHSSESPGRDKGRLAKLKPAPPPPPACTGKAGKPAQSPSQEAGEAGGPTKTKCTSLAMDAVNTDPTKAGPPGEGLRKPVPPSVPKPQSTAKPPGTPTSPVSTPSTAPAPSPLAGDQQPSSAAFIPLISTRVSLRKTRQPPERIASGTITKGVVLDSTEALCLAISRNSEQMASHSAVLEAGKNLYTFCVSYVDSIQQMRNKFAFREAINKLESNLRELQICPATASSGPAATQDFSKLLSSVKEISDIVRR

Row | Variant | effect of a mutation on the interaction
1 | Y398F | decreasing interaction
2 | Y213F | decreasing interaction
